In article doi:10.1101/2023.01.20.524964 (bioRxiv, 2023):

T1: Kapβ2(W373A) (UniProt Q92973-2 1-890, W373A)
T1 sequence (looked up): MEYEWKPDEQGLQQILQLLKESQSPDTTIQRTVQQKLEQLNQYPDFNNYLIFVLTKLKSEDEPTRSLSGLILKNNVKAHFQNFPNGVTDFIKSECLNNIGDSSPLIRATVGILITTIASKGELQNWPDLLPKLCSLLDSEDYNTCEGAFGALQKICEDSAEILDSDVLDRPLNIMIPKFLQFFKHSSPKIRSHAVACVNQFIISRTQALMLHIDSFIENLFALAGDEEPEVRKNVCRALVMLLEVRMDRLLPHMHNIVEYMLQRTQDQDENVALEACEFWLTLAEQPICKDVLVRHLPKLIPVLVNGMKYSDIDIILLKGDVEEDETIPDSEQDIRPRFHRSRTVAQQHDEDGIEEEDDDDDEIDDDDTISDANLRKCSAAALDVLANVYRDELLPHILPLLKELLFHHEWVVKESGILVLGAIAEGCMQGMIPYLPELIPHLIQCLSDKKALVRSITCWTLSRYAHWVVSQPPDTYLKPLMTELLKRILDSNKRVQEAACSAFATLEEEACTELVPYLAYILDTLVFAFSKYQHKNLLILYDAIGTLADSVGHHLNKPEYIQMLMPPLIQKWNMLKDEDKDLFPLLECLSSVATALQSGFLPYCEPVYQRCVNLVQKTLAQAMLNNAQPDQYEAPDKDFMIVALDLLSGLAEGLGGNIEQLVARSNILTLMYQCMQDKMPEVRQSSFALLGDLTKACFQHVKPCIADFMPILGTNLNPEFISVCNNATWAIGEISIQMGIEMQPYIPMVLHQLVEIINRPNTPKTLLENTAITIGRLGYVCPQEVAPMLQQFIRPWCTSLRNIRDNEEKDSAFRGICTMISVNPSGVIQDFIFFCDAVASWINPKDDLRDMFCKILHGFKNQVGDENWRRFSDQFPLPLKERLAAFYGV

T2: Karyopherin-β2 (full length, GST tag removed) (UniProt Q92973-2 1-890)
T2 sequence (looked up): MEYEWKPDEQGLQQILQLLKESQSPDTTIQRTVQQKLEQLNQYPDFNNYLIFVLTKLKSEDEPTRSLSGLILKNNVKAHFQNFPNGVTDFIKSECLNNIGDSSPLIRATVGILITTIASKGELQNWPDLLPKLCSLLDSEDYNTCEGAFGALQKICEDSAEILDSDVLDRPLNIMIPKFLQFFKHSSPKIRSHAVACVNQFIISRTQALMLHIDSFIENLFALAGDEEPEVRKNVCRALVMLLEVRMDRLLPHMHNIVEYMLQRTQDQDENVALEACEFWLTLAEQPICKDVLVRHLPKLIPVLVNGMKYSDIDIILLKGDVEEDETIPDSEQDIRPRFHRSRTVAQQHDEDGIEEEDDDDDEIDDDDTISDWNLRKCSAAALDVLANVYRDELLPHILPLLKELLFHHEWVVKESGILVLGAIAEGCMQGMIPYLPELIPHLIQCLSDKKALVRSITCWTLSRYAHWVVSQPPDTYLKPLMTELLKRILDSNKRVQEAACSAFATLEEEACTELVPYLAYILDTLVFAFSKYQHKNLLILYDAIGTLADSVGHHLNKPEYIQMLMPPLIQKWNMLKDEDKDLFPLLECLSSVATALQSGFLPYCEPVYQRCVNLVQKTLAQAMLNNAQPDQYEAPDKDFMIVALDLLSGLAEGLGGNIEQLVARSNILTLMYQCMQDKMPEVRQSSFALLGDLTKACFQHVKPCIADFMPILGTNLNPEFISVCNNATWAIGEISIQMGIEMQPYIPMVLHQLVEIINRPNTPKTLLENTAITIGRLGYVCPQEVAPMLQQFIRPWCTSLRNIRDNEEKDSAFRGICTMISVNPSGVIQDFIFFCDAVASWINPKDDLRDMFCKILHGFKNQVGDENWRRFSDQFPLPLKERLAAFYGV

B1: MBP-HNRNPH2(103-225) (domain or fragment, UniProt P55795 103-225, looked up)
chain: NSPDTANDGFVRLRGLPFGCSKEEIVQFFSGLEIVPNGMTLPVDFQGRSTGEAFVQFASQEIAEKALKKHKERIGHRYIEIFKSSRAEVRTHYDPPRKLMAMQRPGPYDRPGAGRGYNSIGRG
B2: MBP-HNRNPH2(103-225) P209L (domain or fragment, UniProt P55795 103-225, looked up)
chain: NSPDTANDGFVRLRGLPFGCSKEEIVQFFSGLEIVPNGMTLPVDFQGRSTGEAFVQFASQEIAEKALKKHKERIGHRYIEIFKSSRAEVRTHYDPPRKLMAMQRPGLYDRPGAGRGYNSIGRG
B3: HNRNPH2(103-225) (as used for SEC and cryo-EM) (domain or fragment, UniProt P55795 103-225, looked up)
chain: NSPDTANDGFVRLRGLPFGCSKEEIVQFFSGLEIVPNGMTLPVDFQGRSTGEAFVQFASQEIAEKALKKHKERIGHRYIEIFKSSRAEVRTHYDPPRKLMAMQRPGPYDRPGAGRGYNSIGRG
modifications: mild crosslinking with 0.025% glutaraldehyde in the cryo-EM sample

Tests used:
Kapβ2(W373A) = molecular target: T1, Kapβ2(W373A); test: ITC
[1] = molecular target: Karyopherin-β2 (full length, GST tag removed) (UniProt Q92973); test: ITC
[2] = molecular target: T2, Karyopherin-β2 (full length, GST tag …); test: ITC
[3] = molecular target: T2, Karyopherin-β2 (full length, GST tag …); test: SEC

Molecule | Kd (Kapβ2(W373A)) | Kd [2] | other results
HNRNPM PY-NLS (domain or fragment) | 9 nM | – | –
MBP-HNRNPH2 R212A (ITC) (from UniProt P55795 103-225) (domain or fragment) | – | – | Kd [1]: 3200 nM
B1 | 6100 nM | 50 nM | –
B2 | – | – | fold decrease of affinity against wild type [2]: ~200 fold
B3 | – | – | binding result [3]: binds
EVRTHYDPPRKLMAMQRPGPYDRPGAGRGYNSIGRG (domain or fragment, UniProt P55795 190-225, looked up) [MBP-HNRNPH2(190-225)] | – | 40 nM | –
